According to US10947296B2, “Fusion protein Slit2D2(C386S)-HSA and use thereof in treatment of fibrotic diseases” (SUZHOU THINKING POWER BIOTECHNOLOGY CO., LTD., priority 2016, dated 2021):

System: pulmonary fibrosis model
Test: Efficacy on bleomycin-induced pulmonary fibrosis model
Format: in vivo
Design: body weight of the animals (Mean ± SEM) / Weight of the left lung (Mean ± SEM) / Volume of the left lung (Mean ± SEM): unit not given here
Settings: for Volume of the left lung (Mean ± SEM) / Weight of the left lung (Mean ± SEM): after formalin perfusion, day 14
Experimental: Animals were anesthetized by inhaling isoflurane. After confirmation of anesthesia, the animals were sterilized, then the neck skin was cut, the muscles were bluntly separated to expose the trachea, and bleomycin (dosage: 3 mg/kg, volume: 1.0 mL/kg) was directly injected between the tracheal rings. After the operation, the animals were placed in a 37° C. electric blanket to keep warm until the animals were completely awakened. After confirming that they were able to eat and drink freely, the animals were returned to the cage for normal feeding.
In this experiment, there were four groups, i.e., model group (experimental group-1, […]), PFD group (experimental group-2, n=6), Slit2D2(C386S)-HSA-1 mg/kg (experimental group-3, n=6), and Slit2D2(C386S)-HSA-5 mg/kg (experimental group-4, n=6).
In this experiment, the positive control drug (PFD) was given to rats by gavage twice a day, which was started on the day of modeling, and administered continuously for 14 days. The test compound (Slit2D2(C386S)-HSA) was given intravenously once every other day, which was started on the day of modeling, and a total of seven doses were administered (as shown in table 6).
Physiological observation of the experimental animals: changes in body weight of the animals were measured (body weight was measured once a day before administration); and the death rate of animals during the test period was monitored.
Animals were euthanized 24 hours after the last administration on the 14th day of modeling. After confirming the death of the animals, the left lung was fixed by intrapulmonary infusion of formalin, and the volume and weight of the left lung after perfusion were measured for relevant examination of the pulmonary pathology.
General pathological examination: After the perfusion with an equal amount of formalin in the left lung, the wet weight of left lung after perfusion was weighed/recorded with a micro-balance; and the volume of left lung after perfusion was measured and recorded using a micro-measuring cup.
Pathological examination of lung tissue: The whole lung was dehydrated. Lung paraffin sections were made with paraffin blocks. […] HE staining and Masson Trichrome staining were performed according to pathological staining SOP, and whole section scanning was performed using a Digital Pathscope slice scanner. Pathological analysis and scoring of changes in damage and inflammation of terminal bronchioles and accompanying small pulmonary artery at the periphery of the lesions (as shown in Tables 7 and 8 and FIG. 7) were performed using the HE-stained sections. Lesion area calculation, lesion pathology analysis and scoring were performed with the Masson Trichrome-stained sections (as shown in Table 9 and FIG. 8).
The mean±sd or mean±sem was calculated using the graphpad prism software, and the significant difference test was performed using t-test, one-way ANOVA and two-way ANOVA test. A significant difference between the two groups was considered at p<0.05.

Slit2D2(C386S)-HSA: Fusion protein of the Slit2 D2 domain with C386S mutation linked to human serum albumin; amino acid sequence SEQ ID NO: 3
inhibiting pulmonary fibrosis, compared with positive compound (PFD) (5 mg/kg dose group, iv Q2D): superior to the positive compound (PFD) | Volume of the left lung (Mean ± SEM) (1mpk (BID)): 1.27 ± 0.02 | Weight of the left lung (Mean ± SEM) (1mpk (BID)): 1.20 ± 0.03 | body weight of the animals (Mean ± SEM) (1mpk Q2D iv, Day 1): 273.8 ± 3.1 | body weight of the animals (Mean ± SEM) (1mpk Q2D iv, Day 3): 255.2 ± 3.2 | body weight of the animals (Mean ± SEM) (1mpk Q2D iv, Day 5): 262.8 ± 4.7 | body weight of the animals (Mean ± SEM) (1mpk Q2D iv, Day 7): 276.7 ± 5.4 | body weight of the animals (Mean ± SEM) (1mpk Q2D iv, Day 9): 290.7 ± 6.3 | body weight of the animals (Mean ± SEM) (1mpk Q2D iv, Day 11): 302.7 ± 6.9 | body weight of the animals (Mean ± SEM) (1mpk Q2D iv, Day 13): 310.3 ± 7.8 | Volume of the left lung (Mean ± SEM) (5mpk (BID)): 1.32 ± 0.03 | Weight of the left lung (Mean ± SEM) (5mpk (BID)): 1.31 ± 0.07 | body weight of the animals (Mean ± SEM) (5mpk Q2D iv, Day 1): 272.7 ± 1.8 | body weight of the animals (Mean ± SEM) (5mpk Q2D iv, Day 3): 251.8 ± 2.3 | body weight of the animals (Mean ± SEM) (5mpk Q2D iv, Day 5): 245.0 ± 5.0 | body weight of the animals (Mean ± SEM) (5mpk Q2D iv, Day 7): 258.3 ± 4.4 | body weight of the animals (Mean ± SEM) (5mpk Q2D iv, Day 9): 272.5 ± 5.0 | body weight of the animals (Mean ± SEM) (5mpk Q2D iv, Day 11): 284.3 ± 5.9 | body weight of the animals (Mean ± SEM) (5mpk Q2D iv, Day 13): 292.2 ± 5.6 | inhibition on the progression of pulmonary fibrosis (intravenous, every other day for 2 weeks, 1 and 5 mg/kg): significant inhibition on the progression of pulmonary fibrosis, with a dose-dependent trend
